Assay results as given in patent US12590147 (OBLIQUE THERAPEUTICS, dated 2026).
Changes are numbered by the printed parent chain.

B1: 15D8-1 (antibody, V domains shown)
VH: DVQLVESGGGLVQPGGSRKLSCAASGFTFSSFGMHWVRQAPEKGLEWVAYISSGSSTIYYADTVKGRFTISRDNPKNTLFLQMTSLRSEDTAMYYCARRGNAMDYWGQGTSVTVSS
VL: NIMMTQSPSSLAVSAGEKVTMSCKSSQSVLYSSNQKNYLAWYQQKPGQSPKLLIYWASTRESGVPDRFTGSGSGTDFTLTISSVQAEDLAVYYCHQYFSSWTFGGGTKLEIK
B2: 41B5-1 (antibody, V domains shown)
VH: DVQLQESGPGLVKPSQSLSLTCTVTDYSLTSDYAWNWIRQFPGNKLEWMGYITYSGYTNFNPSLRSRISITRDTSKTQFFLQLNSVTAEDTATYYCVRSTTYFDYWGQGTTLTVSS
VL: DVLMTQTPLSLPVSLGDQASISCRSSQSIVHSDGNTYLEWYLQKPGQSPKLLIYKVSNRFSGVPDRFSGSGSGTDFTLKINRVEAEDLGIYYCFQGSHVPPTFGGGTKLEIK
B3: 46B7-1 (antibody, V domains shown)
VH: B2 VH with F60Y, R65K, I68V, A88T, V97A, T101A
VL: B2 VL with I29V, V30I, N81S, I90V
B4: 16F1-1 (antibody, IgG2a, V domains shown)
VH: EVQLVESGGGLVQPKGSLKLSCAASGFTFNTYAMHWVRQAPGKGLEWVARIRSKSSNYATYYADSVKDRFTISRDDSQSMVYLQMNNLKTEDTAMYYCVRKGDGYDGWFAYWGQGTLVTVSA
VL: DIQMTQSPASLSASVGETVTITCRPSGNIHNYLVWYQQKQGKSPQVLVYNSKTLADGVPSRFSGSGSGTQYSLKINSLQPEDFGTYYCQHFWSTPLTFGAGTKLELK
B5: 17E11-1 (antibody, IgG1, V domains shown)
VH: EVQLLQSVAELVRPGASVKLSCTASGFNIKNTFIHWLKQRPEQGLEWIGKIDPANGNIRCAPKFQGKATITADTSSNTAYLQLSSLTSGDTAIYYCGRGTMLVGHFYWYFDVWGTGTTVTVSS
VL: DIVMSQSPSSLAVSVGEKITMSCKSSQSLLYSSNQKNYLAWYQQKPGQSPKLLIYWASTRESGVPDRFSGSGSGTDFTLTISSVKTEDLAIFYCQQYYYYPPTFGAGTKLELR
B6: 17E9-1 (antibody, IgG2b, V domains shown)
VH: B5 VH
VL: B5 VL
B7: OT-Ab1 (antibody, IgG2b, V domains shown)
VH: EVQLQQSGAELVKPGASVKLSCTASGFNIKDTYIHWVKQRPEQGLEWIGRIDPANGNTRYDPKFQGKATITADTSSNTAYLQLSSLTSEDTAVYYCAKVSGDRRFYWYFDVWGAGTTVTVSS
VL: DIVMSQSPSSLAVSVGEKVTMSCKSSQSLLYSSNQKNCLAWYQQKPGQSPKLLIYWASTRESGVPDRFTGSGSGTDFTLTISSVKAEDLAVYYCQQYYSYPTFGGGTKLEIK
notes: mouse monoclonal, IgG2b/kappa
B8: OT-Ab2 (antibody, IgG1, V domains shown)
VH: EVKLLESGGGLVQPGGSLKLSCAASGFDFRRYWMSWVRQAPGKGLEWIGEINPDSSTINYTPSLKDEFIISRDNAKNTLYLQMSKVRSEDTVLYYCSRGGDYWGQGTSVTVSS
VL: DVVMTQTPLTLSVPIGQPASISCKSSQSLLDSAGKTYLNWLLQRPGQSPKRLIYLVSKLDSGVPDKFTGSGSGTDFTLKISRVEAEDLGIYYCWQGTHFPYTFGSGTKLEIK
notes: mouse monoclonal, IgG1/kappa
B9: OT-Ab3 (antibody, IgG1, V domains shown)
VH: B8 VH with K3N
VL: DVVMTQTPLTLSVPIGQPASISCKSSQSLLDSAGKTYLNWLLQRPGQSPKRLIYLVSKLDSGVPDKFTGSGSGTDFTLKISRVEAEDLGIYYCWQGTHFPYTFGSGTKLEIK
notes: mouse monoclonal, IgG1/kappa

target: T1, human TRPV1 (transient receptor potential vanilloid type 1) (human, UniProt Q8NER1 1-839); test: cell-based or functional assay
T1 sequence (Q8NER1 whole entry): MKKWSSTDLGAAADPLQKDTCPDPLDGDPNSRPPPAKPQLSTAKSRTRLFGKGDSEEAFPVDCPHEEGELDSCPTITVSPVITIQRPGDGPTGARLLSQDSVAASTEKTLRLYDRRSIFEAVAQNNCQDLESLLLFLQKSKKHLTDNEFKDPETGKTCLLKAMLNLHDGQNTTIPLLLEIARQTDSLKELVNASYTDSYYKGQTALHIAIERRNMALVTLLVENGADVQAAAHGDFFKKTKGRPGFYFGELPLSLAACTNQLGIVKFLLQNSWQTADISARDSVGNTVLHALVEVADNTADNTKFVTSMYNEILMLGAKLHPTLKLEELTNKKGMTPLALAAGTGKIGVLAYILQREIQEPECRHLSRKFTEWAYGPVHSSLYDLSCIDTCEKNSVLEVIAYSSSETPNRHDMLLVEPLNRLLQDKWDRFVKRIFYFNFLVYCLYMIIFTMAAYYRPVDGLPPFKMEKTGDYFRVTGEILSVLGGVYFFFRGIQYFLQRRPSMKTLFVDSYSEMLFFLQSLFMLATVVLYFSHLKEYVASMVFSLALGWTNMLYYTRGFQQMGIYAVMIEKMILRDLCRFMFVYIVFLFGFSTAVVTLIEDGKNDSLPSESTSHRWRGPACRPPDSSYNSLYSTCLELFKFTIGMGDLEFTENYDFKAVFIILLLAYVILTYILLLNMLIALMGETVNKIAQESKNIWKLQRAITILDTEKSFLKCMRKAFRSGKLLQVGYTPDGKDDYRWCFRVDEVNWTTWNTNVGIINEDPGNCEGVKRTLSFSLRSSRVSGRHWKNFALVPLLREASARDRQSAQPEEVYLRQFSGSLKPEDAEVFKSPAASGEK

Row | Binder | IC50 of inhibition of TRPV1-mediated capsaicin-induced Ca2+ uptake (FLIPR) [nM]
1 | B1 | ~70
2 | B2 | ~170
3 | B3 | ~200
4 | B4 | ~215
5 | B5 | ~230
6 | B6 | ~400

target: T1, human TRPV1 (transient receptor …); test: FACS on CHO cells with induced hTRPV1 expression
Experimental: For monoclonal antibody preparations, CHO-TRPV1 cells were incubated with 50 μl antibody preparation (serum, hybridoma supernatant or purified monoclonal antibody) for 30 min at 4° C., followed by 30 min incubation at 4° C. with 50 µl secondary antibody (anti-mouse IgG, conjugated to fluorescent probe). The negative control was secondary antibody only (anti-mouse IgG at […] in the 50 µL sample). Binding was assessed by measurement of fluorescence signal from cells and reported as mean fluorescence intensity (MFI). CHO-TRPV1 cells are adherent Chinese hamster ovary (CHO) cells with a tetracycline regulated expression system (T-REx) of hTRPV1 (human TRPV1) as described elsewhere. Doxycycline was used to induce expression of TRPV1 (denoted +TRPV1). Non-induced cells are denoted –TRPV1.
Three examples of mouse monoclonal antibodies against human TRPV1, OT-Ab1, OT-Ab2 and OT-Ab3, were produced using the hybridoma technology. Specificity of binding to hTRPV1 was determined using FACS, employing a CHO cell line with inducible hTRPV1 expression. OT-Ab1, OT-Ab2 and OT-Ab3 bound to hTRPV1-expressing cells but not to non-hTRPV1-expressing cells indicating strongly specific binding to hTRPV1 (FIG. 5).

Row | Binder | binding result
7 | B7 | binds
8 | B8 | binds
9 | B9 | binds
